Where a chain is given by its changes, count along the chain named. Values belong to the binder of their own block, whether it stands above or below them.
Columns and labels:
[1] = target: T1, endogenous LGR5 of human cancer cell lines (human (endogenous in NALM6, REH, 697, LoVo)) (UniProt O75473)
T1 sequence: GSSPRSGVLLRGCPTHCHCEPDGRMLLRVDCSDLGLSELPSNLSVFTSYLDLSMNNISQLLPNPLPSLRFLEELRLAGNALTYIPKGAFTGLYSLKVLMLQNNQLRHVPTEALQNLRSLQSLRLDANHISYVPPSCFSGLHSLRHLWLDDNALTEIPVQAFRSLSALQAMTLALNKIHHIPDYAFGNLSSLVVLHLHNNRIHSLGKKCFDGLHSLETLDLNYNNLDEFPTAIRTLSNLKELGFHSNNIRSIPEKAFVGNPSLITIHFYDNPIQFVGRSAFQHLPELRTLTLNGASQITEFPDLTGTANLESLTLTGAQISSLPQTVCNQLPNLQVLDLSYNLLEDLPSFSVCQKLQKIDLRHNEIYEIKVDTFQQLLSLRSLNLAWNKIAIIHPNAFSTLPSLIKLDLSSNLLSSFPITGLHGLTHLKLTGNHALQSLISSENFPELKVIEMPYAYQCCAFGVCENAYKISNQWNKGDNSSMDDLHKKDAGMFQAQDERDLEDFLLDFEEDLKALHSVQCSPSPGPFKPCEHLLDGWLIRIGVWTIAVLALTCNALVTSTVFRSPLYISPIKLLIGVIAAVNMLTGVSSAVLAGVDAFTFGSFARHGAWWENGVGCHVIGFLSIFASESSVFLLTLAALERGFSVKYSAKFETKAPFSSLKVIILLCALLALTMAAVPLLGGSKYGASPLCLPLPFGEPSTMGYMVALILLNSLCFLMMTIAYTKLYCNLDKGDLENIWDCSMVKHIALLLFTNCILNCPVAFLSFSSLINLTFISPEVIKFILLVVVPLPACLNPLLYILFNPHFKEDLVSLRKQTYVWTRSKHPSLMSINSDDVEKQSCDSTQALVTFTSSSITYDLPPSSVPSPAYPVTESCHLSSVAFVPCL

[2] = target: T1, endogenous LGR5 of human cancer cell lines (human (endogenous in NALM6, REH, 697, LoVo)); remark: listed apart in the source
[3] = target: T2, RAD-displayed Fragment 1A of human LGR5 (Homo sapiens, UniProt O75473); assay: BLI
T2 chain: GSSPRSGVLLRGCPT

[4] = target: T2, RAD-displayed Fragment 1A of human LGR5; assay: western blot
[5] = target: T3, endogenous LGR5 of human cancer cell lines (Homo sapiens, UniProt O75473); assay: western blot
[6] = target: human LGR4 transgene with N-terminal HA tag, V2 receptor tail and eGFP (Homo sapiens, UniProt Q9BXB1); assay: flow cytometry on cells
[7] = target: murine LGR5 transgene with N-terminal HA tag, V2 receptor tail and eGFP (Mus musculus, UniProt Q9Z1P4); assay: flow cytometry on cells
[8] = target: T3, endogenous LGR5 of human cancer cell …; assay: flow cytometry on cells
[9] = target: T2, RAD-displayed Fragment 1A of human LGR5; assay: immunostaining of cells or tissue

Chain of murine LGR5 transgene with N-terminal HA tag, V2 receptor tail and eGFP (Q9Z1P4 22-907): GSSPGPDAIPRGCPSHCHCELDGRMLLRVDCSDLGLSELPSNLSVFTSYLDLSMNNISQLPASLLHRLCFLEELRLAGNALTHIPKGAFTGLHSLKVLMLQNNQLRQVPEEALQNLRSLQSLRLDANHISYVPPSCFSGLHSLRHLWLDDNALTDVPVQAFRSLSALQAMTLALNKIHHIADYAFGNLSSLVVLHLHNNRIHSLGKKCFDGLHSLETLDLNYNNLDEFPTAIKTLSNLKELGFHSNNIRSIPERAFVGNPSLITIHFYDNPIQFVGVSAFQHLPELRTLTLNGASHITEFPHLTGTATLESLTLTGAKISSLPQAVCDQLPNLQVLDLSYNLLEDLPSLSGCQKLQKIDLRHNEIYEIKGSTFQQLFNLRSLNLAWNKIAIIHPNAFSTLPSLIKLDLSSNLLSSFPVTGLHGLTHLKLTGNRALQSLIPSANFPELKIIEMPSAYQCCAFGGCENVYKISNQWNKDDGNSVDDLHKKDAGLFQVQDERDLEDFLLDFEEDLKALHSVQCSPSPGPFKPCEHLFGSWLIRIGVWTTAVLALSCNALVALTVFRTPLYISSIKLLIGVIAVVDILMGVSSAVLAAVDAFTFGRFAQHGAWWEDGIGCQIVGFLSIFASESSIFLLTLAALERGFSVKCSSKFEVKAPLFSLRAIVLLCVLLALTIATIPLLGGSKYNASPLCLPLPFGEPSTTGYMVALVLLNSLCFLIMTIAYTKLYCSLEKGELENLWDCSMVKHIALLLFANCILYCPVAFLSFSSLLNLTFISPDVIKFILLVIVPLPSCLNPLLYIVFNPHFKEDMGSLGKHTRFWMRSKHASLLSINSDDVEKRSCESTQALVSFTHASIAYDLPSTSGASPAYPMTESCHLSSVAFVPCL
Chain of human LGR4 transgene with N-terminal HA tag, V2 receptor tail and eGFP (Q9BXB1 25-951): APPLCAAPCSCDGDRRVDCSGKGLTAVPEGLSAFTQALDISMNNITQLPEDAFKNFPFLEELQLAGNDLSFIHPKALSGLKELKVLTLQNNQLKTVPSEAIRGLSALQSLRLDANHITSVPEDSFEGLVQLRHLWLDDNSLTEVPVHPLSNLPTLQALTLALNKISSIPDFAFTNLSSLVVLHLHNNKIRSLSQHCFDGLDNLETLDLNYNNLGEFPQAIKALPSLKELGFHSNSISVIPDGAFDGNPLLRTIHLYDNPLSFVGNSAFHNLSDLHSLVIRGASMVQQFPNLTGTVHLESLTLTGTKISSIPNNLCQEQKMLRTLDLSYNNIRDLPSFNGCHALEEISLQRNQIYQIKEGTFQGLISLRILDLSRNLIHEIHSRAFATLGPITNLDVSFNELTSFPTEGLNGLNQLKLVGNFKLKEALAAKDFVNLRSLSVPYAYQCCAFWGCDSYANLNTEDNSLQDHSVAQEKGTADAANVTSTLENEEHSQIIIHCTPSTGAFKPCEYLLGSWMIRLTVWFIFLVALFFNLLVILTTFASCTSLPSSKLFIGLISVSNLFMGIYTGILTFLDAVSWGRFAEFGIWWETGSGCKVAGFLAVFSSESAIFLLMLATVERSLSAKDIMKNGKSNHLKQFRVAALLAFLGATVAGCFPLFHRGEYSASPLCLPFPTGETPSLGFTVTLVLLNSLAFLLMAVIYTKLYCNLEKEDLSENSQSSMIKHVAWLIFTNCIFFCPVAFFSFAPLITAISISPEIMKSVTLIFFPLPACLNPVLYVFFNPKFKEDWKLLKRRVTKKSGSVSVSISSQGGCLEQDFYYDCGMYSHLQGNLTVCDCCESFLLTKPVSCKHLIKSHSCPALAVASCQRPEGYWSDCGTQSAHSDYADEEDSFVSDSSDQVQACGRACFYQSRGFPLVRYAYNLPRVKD

B3: α-LGR5 hybridoma clone 2 (antibody, V domains shown)
VH: QVQLQQPGAELVKPGASVKLSCKASGYTFTNYWMQWVKQRPGQGLEWIGEIDPSDSYTNYNQKFKGKATLTVDTSSSTAYMQLSSLTSEDSAVYYCARSLSGYVDYWGQGTTLTVSS
VL: DIQMTQTTSSLSASLGDRVTISCRASQDISNRLNWYQQKPDGTVKLLISYRSRLHSGVPSRFSGSGSGTDYSLTISNLEQEDIATYFCQQGNSLPPTFGGGTKLEVR
binding result [5]: binds | binding result [4]: binds

B4: α-LGR5 hybridoma clone 1 (antibody, V domains shown)
VH: B3 VH with N31S, S56Y
VL: B3 VL with T7S, S22N, S30R, H55Q, D70E, S93T
binding result [4]: binds

B6: α-LGR5 hybridoma clone 4 (antibody, V domains shown)
VH: B3 VH with N31D, K65Q, M81I, E89D, Y103S
VL: B3 VL with H55Q, S76T, S93T
binding result [4]: binds

Now from value to binder, other results behind:

binding result [3]: binds
B1: α-LGR5-ADC (murine clone 2 conjugated to MMAE, sulphatase cleavable linker) (antibody, V domains shown)
VH: B3 VH
VL: B3 VL
killing of NALM6 cells after three days of treatment (CellTiter-Glo), EC50 [1]: 4 nM | killing of REH cells after three days of treatment (CellTiter-Glo), EC50 [1]: 10 nM | killing of LoVo cells after three days of treatment (CellTiter-Glo), EC50 [2]: 9 nM

binding result [4]: binds
B2: α-LGR5 hybridoma clone 3 (antibody, V domains shown)
VH: B3 VH with N31S, T58S
VL: B3 VL with H55Q, Q80E, S93T

binding result [6]: no binding | binding result [7]: no binding | binding result [8]: binds | binding result [9]: binds
B5: murine α-LGR5 coupled to Dylight650 fluorophore (antibody, V domains shown)
VH: B3 VH
VL: B3 VL
